Reference: publication doi:10.1101/2019.12.15.876185

Test system: CTCF (human)
Assay: EMSA

Substance Cacna1b e37a DNA probe (139 bp) has a Kd of 0.0461 ng.
